Data: patent publication US20120027773A1 (AVEO PHARMACEUTICALS, published 2012)
Like-named read-outs stand apart in the source and are kept apart here. Each block holds one binder with its values, some of them ahead of it.

Legend:
[1] = target: T1, delta 160 RON variant (cell surface) (human, UniProt Q04912 25-1400); assay: FACS, 10 ug/ml antibody, HT-29 cells, 4 C
T1 construct: whole, on cells; Splice variant; also called delta 160 variant
Procedure: Binding to cell surface wild-type RON and delta 160 RON at 4° C. was determined for antibodies 07F01, 12B11, 17F06, 18H09, and 29B06, using FACS. Cells expressing wild-type RON (PC3), and cells expressing delta 160 RON (HT-29), were harvested using cell dissociation buffer (Invitrogen), washed twice with FACS buffer (0.5% BSA PBS) and treated with CytoQ Antibody diluent and FC receptor block (Innovex). Purified antibodies were diluted at a concentration of 10 μg/ml, in FACS buffer. Cells were incubated with 100 μl of antibody mix for one hour, washed with FACS buffer three times, and incubated for 45 minutes with goat anti-mouse PE conjugated antibody (Jackson Immunoresearch Laboratories). Cells were washed three times with FACS buffer, resuspended in 300 μl of FACS buffer and analyzed using a Beckman Coulter Cytomics FC 500 FACS instrument.

[2] = target: T2, recombinant human RON SEMA and PSI domains (human, UniProt Q04912 25-571); assay: SPR, Ab captured on anti-mouse IgG, 37 C, AVG
T2 construct: domain: SEMA+PSI; Commercial protein (R&D Systems); also called rhRON SEMA+PSI; hRON SEMA+PSI
Procedure: (§1) The binding affinities and kinetics of binding of antibodies 07F01, 29B06, 17F06, 18H09, and 12B11 to recombinant human RON-ECD/mFc fusion protein (rhRON ECD/mFc) and recombinant human RON SEMA and PSI domains (rhRON SEMA+PSI) (R&D Systems, Inc., Minneapolis, Minn.) were measured by surface plasmon resonance, using a Biacore T100 instrument (GE Healthcare, Piscataway, N.J.).
(§2) Rabbit anti-mouse IgGs (GE Healthcare) were immobilized on carboxymethylated dextran CM4 sensor chips (GE Healthcare) by amine coupling, according to a standard protocol. Analyses were performed at 25° C. and 37° C., using PBS containing 0.05% surfactant P20 as running buffer. The antibodies were captured in individual flow cells at a flow rate of 10 μl/min. Injection time was varied for each antibody to yield an Rmax between 30 and 60 RU. 250 μg/mL mouse Fc were injected at 30 μl/min for 120 seconds to block non-specific binding of antibodies to Fc portion of the protein when needed. Buffer, rhRon ECD/mFc or rhRON SEMA+PSI diluted in running buffer was injected sequentially over a reference surface (no antibody captured) and the active surface (antibody to be tested) for 300 seconds at 60 μl/minute. The dissociation phase was monitored for up to 3600 seconds. The surface was then regenerated with two 60-second injections of 10 mM Glycine-HCl, pH 1.7, at a flow rate of 60 μl/min. The rhRON ECD/mFc or rhRON SEMA+PSI concentration range tested was 0.625 nM to 20 nM.

[3] = target: human wild-type RON (cell surface) (human, UniProt Q04912 25-1400); assay: cell-based or functional assay
[4] = target: T1, delta 160 RON variant (cell surface); assay: FACS titration on HT29 cells, 4 C
Procedure: Binding to cell surface human wild-type RON and the delta 160 RON variant by antibodies 07F01, Sh07F01-62, 29B06, and Sh29B06-78 was measured at 4° C., using Fluorescence Activated Cell Sorting (FACS). PC3 cells expressing the human wild-type RON, and HT29 cells expressing the delta 160 variant, were harvested using cell dissociation buffer (Invitrogen), washed twice with FACS buffer (PBS with 0.5% BSA), and treated 10 minutes with Cyto Q Antibody diluent and FC receptor block (Innovex Biosciences, Richmond, Calif.). Purified antibodies were diluted in FACS buffer over a concentration range from 0.01 nM to 25 nM. Cells were incubated with 100 μl of antibody for one hour, washed with FACS buffer three times, and incubated for 45 minutes with goat anti-mouse PE-conjugated antibody (Jackson ImmunoResearch Laboratories, West Grove, Pa.) or donkey anti-human PE-conjugated antibody (Jackson ImmunoResearch Laboratories, West Grove, Pa.). Cells were washed three times with FACS buffer, resuspended in 300 μl of FACS buffer, and analyzed using a Beckman Coulter Cytomics FC 500 FACS instrument. All four antibodies were compared in the same experiment.

[5] = target: T2, recombinant human RON SEMA and PSI …; assay: SPR, Ab captured on anti-mouse IgG, 25 C, AVG
Procedure: as §1, §2

[6] = target: T1, delta 160 RON variant (cell surface); assay: FACS titration on HT29 cells, 4 C; remark: listed apart in the source
Procedure: Binding to cell surface human wild-type RON and the delta 160 RON variant by antibodies 29B06 and 07F01 was measured at 4° C., using Fluorescence Activated Cell Sorting (FACS). PC3 cells expressing the human wild-type RON, and HT29 cells expressing the delta 160 variant, were harvested using cell dissociation buffer (Invitrogen), washed twice with FACS buffer (PBS with 0.5% BSA), and treated for 10 minutes with Cyto Q Antibody diluent and FC receptor block (Innovex Biosciences, Richmond, Calif.). Purified antibodies were diluted in FACS buffer over a concentration range from 0.02 nM to 40 nM. Cells were incubated with 100 μl of antibody for one hour, washed with FACS buffer three times, and incubated for 45 minutes with goat anti-mouse PE-conjugated antibody (Jackson ImmunoResearch Laboratories, West Grove, Pa.). Cells were washed three times with FACS buffer, resuspended in 300 μl of FACS buffer, and analyzed using a Beckman Coulter Cytomics FC 500 FACS instrument.

- HT-29 % cell surface binding [1]: 99.1%
- Kd [2]: 0.4 nM
- koff [2]: 0.0008 s⁻¹
- kon [2]: 2e+06 M⁻¹ s⁻¹
- Percent Inhibition of MSP-induced HPAF-II cell migration, antibody 2 ug/ml [3]: 95.6%
- Kd [4]: 0.1 nM
- Kd [5]: 0.088 nM
- koff [5]: 0.00036 s⁻¹
- kon [5]: 5.2e+06 M⁻¹ s⁻¹
- Kd [6]: 0.024 nM
B1: 07F01 (antibody, mouse IgG1, kappa, V domains shown)
VH: EVKLLESGGGLVQPGGSLKLSCAASGFDFSRHWMSWVRLAPGKGLEWIAEINPDSRTINYTPSLKEKFIISRDNAKNSLFLQMNRVRSEDTALYYCARRVRIHYYGAMDCWGQGTSVTVSS
VL: DIVLTQSQKIVSTSVGARVSVTCKASQNVGSSLVWYQQKPGQSPKTLIYSASFRYSGVPDRFTGSGSGTDFTLTISNVQSEDLADYFCQQYNNYPLTFGAGTKLELKR
notes: Murine hybridoma monoclonal, IgG1/kappa; also called mu07F01; antibody 07F01

- HT-29 % cell surface binding [1]: 99%
- Kd [2]: 1.3 nM
- koff [2]: 0.00069 s⁻¹
- kon [2]: 520000 M⁻¹ s⁻¹
- Percent Inhibition of MSP-induced HPAF-II cell migration, antibody 2 ug/ml [3]: 96.8%
- Kd [4]: 0.167 nM
- Kd [5]: 0.18 nM
- koff [5]: 7e-05 s⁻¹
- kon [5]: 420000 M⁻¹ s⁻¹
- Kd [6]: 0.146 nM
B2: 29B06 (antibody, mouse IgG1, kappa)
heavy: EVQLQESGPSLVKPSQTLSLTCSVTGDSITSGYWNWIRKFPGNKLEYMGYISYSGKTYYNPSLKSRISITRDTSKNHYYLQLISVTAEDTATYYCARSKYDYAMDYWGQGTSVTVSSAKTTPPSVYPLAPGSAAQTNSMVTLGCLVKGYFPEPVTVTWNSGSLSSGVHTFPAVLQSDLYTLSSSVTVPSSTWPSETVTCNVAHPASSTKVDKKIVPRDCGCKPCICTVPEVSSVFIFPPKPKDVLTITLTPKVTCVVVDISKDDPEVQFSWFVDDVEVHTAQTQPREEQFNSTFRSVSELPIMHQDWLNGKEFKCRVNSAAFPAPIEKTISKTKGRPKAPQVYTIPPPKEQMAKDKVSLTCMITDFFPEDITVEWQWNGQPAENYKNTQPIMDTDGSYFVYSKLNVQKSNWEAGNTFTCSVLHEGLHNHHTEKSLSHSPGK
light: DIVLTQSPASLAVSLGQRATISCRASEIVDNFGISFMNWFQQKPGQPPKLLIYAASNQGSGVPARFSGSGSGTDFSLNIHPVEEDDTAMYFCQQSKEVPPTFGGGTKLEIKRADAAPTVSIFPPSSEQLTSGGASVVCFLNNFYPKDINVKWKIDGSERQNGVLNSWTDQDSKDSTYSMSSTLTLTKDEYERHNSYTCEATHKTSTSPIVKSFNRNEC
notes: Murine hybridoma monoclonal, IgG1/kappa; also called mu29B06; antibody 29B06
